These results are taken from patent US20200325187A1 (Genentech, published 2020).

T1: hVEGF-A (8-109) (human, UniProt P15692 214-315)
T1 sequence (looked up): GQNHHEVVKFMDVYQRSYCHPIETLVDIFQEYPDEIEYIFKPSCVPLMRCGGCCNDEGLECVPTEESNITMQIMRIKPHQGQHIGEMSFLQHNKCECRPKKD

In one test the target is hVEGF-A (human, UniProt P15692-4 27-191, limits assumed). In words: cell-based or functional assay.
As for GCNIMLPFWGCGRDFECFINCICQYYQSCG (designed binder) [VEGF_CKP9.54.90.44], the Cellular IC50 was determined as 1.16 nM and the FOLD [..] [..] TO VARIANT 9.54.90 is 1.16 fold.
The like results for GCDVMQPYWGCGPDIDCLSNCICHWYNSCG (designed binder) [VEGF_CKP9.63.12.12] were, in that order, 0.56 nM and 2.41 fold.
Taken in the same sequence, the figures for GCNIMLPFWGCGRDFECMQTCICQYYQSCG (designed binder) [VEGF_CKP9.54.90.25] were 1.26 nM and 1.07 fold.

Another test has as its target T1, hVEGF-A (8-109). Description: spot phage ELISA. The protocol: (§1) After four rounds of binding selection, individual phage clones were picked and inoculated into 450 μl 2YT media containing 50 µg/ml Carbenecillin and M13-KO7 helper phage in 96-well blocks, which were grown at 37° C. overnight. […] The plates were washed and bound phage was detected with anti-M13-HRP followed by TMB substrate. In these assays, phage binding to BSA alone was tested in parallel to assess background binding. […] Positive clones were subjected to DNA sequence analysis.
Consider GCNPMLPLWGCKQDSDCLAGCVCHWYQSCG (designed binder) [VEGF_CKP9.L1.78], for which the ELISA is 3 and the “S/N vs BSA” value worked out at 25.1.
The like results for GCDLMQPLWGCKQDSDCLAGCVCHWYQSCG (designed binder) [VEGF_CKP9.L1.76] were, in that order, 2.5 and 17.4.
The like results for GCNVLLPLWGCKQDSDCLAGCVCHWYQSCG (designed binder) [VEGF_CKP9.L1.64] were, in that order, 2.3 and 19.9.
GCQVLQPSWGCKQDSDCLAGCVCHWYQSCG (designed binder) [VEGF_CKP9.L1.79]: the ELISA is 1.2 and the “S/N vs BSA” value was found to be 10.
The like results for GCQVMRPFWGCKQDSDCLAGCVCHWYQSCG (designed binder) [VEGF_CKP9.L1.7] were, in that order, 1.5 and 8.9.
Regarding GCQVMQPAWGCKQDSDCLAGCVCHWYQSCG (designed binder) [VEGF_CKP9.L1.8], the ELISA amounted to 1.2 and the “S/N vs BSA” value is 12.8.
Taken in the same sequence, the figures for GCHRLQPLWGCKQDSDCLAGCVCHWYQSCG (designed binder) [VEGF_CKP9.L1.19] were 1.4 and 11.6.
Consider GCDIMQPLWGCKQDSDCLAGCVCHWYQSCG (designed binder) [VEGF_CKP9.L1.68], for which the ELISA was 2 and the “S/N vs BSA” value came out at 23.2.
Taken in the same sequence, the figures for GCHLFEPLWGCKQDSDCLAGCVCHWYQSCG (designed binder) [VEGF_CKP9.L1.2] were 1.6 and 12.5.
Taken in the same sequence, the figures for GCNPMLPFWGCKQDSDCLAGCVCHWYQSCG (designed binder) [VEGF_CKP9.L1.57] were 3.7 and 31.8.

A further test concerns the target T1, hVEGF-A (8-109). Description: spot phage ELISA. The source holds these as a separate data set. The protocol:
as §1
With GCQLLEPMWGCKQDSDCLAGCVCHWYNSCG (designed binder) [VEGF_CKP9.9], the ELISA stood at 1.1 and the “S/N vs BSA” value was 19.7.
Taken in the same sequence, the figures for GCNLMHPFWGCKQDSDCLAGCVCHWYQSCG (designed binder) [VEGF_CKP9.51] were 1 and 11.
Consider GCALLQPLWGCKQDSDCLAGCVCRWYNSCG (designed binder) [VEGF_CKP9.69], for which the ELISA stood at 1 and the “S/N vs BSA” value stood at 14.3.
GCHLLLPLWGCKQDSDCLAGCVCRWYHSCG (designed binder) [VEGF_CKP9.76]: the ELISA stood at 1.3 and the “S/N vs BSA” value worked out at 15.5.
Taken in the same sequence, the figures for GCRLLEPSWGCKQDSDCLAGCVCQWYQSCG (designed binder) [VEGF_CKP9.72] were 0.6 and 10.
The like results for GCQLLQPLWGCKQDSDCLAGCVCRWYQSCG (designed binder) [VEGF_CKP9.71] were, in that order, 1 and 16.5.
